Earlier results on two substances are cited in paper PMC10530501.

The target of one series is C1q (Homo sapiens) (UniProt P02745).
In a further series the target is TLR4 (Homo sapiens) (UniProt O00206). Briefly: SPR. For orientation: In SPR one partner is held on a chip, and binding of the other changes the refractive index at the surface.
Sequence of UniProt O00206 (O00206 24-631): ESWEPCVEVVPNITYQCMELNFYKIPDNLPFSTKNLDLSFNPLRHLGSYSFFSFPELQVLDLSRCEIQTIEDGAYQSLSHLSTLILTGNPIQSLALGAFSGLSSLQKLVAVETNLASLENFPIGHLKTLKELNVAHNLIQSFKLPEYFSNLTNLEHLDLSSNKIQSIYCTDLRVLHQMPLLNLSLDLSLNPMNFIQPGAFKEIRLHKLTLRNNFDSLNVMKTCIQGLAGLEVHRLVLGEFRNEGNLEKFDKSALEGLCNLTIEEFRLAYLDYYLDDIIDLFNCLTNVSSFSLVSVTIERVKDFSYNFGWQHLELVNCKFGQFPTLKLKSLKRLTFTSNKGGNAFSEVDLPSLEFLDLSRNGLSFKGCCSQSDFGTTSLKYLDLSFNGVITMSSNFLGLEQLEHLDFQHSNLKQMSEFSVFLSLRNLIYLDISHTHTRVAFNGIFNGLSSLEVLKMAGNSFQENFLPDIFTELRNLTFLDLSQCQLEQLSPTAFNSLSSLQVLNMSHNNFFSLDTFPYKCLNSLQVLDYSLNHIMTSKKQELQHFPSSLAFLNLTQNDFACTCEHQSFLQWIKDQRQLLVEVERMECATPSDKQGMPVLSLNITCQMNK

Sequence of UniProt P02745 (P02745 23-245, chain 1 of 3): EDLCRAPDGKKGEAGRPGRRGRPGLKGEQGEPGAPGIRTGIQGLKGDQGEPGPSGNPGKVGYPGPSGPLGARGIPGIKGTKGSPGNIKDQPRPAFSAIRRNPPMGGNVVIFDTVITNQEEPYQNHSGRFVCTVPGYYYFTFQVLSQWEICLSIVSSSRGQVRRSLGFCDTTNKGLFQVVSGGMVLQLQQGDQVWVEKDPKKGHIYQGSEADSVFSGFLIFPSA
Sequence of UniProt P02745 (P02746 28-253, chain 2 of 3, further chain): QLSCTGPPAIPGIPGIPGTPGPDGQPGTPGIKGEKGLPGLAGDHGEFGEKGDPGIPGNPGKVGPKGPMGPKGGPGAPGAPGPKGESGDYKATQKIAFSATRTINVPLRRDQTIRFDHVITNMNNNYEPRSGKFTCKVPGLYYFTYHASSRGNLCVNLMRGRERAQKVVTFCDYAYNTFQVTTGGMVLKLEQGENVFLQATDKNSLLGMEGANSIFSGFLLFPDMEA
Sequence of UniProt P02745 (P02747 29-245, chain 3 of 3, further chain): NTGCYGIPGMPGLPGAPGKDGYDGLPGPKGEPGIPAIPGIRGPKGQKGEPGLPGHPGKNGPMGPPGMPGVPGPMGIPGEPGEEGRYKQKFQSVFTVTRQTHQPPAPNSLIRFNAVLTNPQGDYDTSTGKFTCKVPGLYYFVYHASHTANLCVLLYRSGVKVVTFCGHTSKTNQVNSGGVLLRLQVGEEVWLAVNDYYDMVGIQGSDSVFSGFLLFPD

Usually Kd stands for the free concentration of one partner at which half of the binding sites on the other are occupied at equilibrium, for simple one-to-one binding. Turning to HMGB1 (from UniProt P09429), the Kd in the series with C1q (Homo sapiens) is 0.2 µM. In the case of pCTS-L (from UniProt P07711), in the series with TLR4 (Homo sapiens), the dissociation constant (Kd) was 0.0202 µM.
